Target: acetylcholine-binding protein (AChBP) from Lymnaea stagnalis, carboxy-terminal hexahistidine-tagged (Lymnaea stagnalis, UniProt P58154 20-229)
Assay: SPR

Chain of acetylcholine-binding protein (AChBP) from Lymnaea stagnalis, carboxy-terminal hexahistidine-tagged (P58154 20-229): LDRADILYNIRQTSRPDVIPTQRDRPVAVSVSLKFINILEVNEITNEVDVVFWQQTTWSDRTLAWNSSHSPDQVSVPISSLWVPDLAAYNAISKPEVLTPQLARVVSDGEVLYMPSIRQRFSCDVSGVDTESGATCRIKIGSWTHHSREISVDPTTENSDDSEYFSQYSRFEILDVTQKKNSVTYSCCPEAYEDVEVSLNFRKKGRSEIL

B1: α-bungarotoxin (natural protein)
chain: IVCHTTATSPISAVTCPPGENLCYRKMWCDAFCSSRGKVVELGCAATCPSKKPYEEVTCCSTDKCNPHPKQRPG
B1: binds.

— paper PMC2684811 (Analytical biochemistry, 2009)
